Measurements: the supplement of paper PMC7877785
± gives the uncertainty stated by the source.

Assay: self-splicing fitness, log relative to wild type (ln ratio); higher = more splicing; Tetrahymena group I intron in knt gene, E. coli kanamycin selection, DiMSum; sequences stand for … in CUCUCU…GGAGGGAAAAGUUAUCAGGCAUGCACCUGGUAGCUAGUCUUUAAACCAAUAGAUUGCAUCGGUUUAAAAGGCAAGACCGUCAAAUUGCGGGAAAGGGGUCAACAGCCGUUCAGUACCAAGUCUCAGGGGAAACUUUGAGAUGGCCUUGCAAAGGGUAUGGUAAUAAGCUGACGGACAUGGUCCUAACCACGCAGCCAAGUCCUAAGUCAACAGAUCUUCUGUUGAUAUGGAUGCAGUUCACAGACUAAAUGUCGGUCGGGGAAGAUGUAUUCUUCUCAUAAGAUAUAGUCGGACCUCUCCUUAAUGGGAGCUAGCGGAUGAAGUGAUGCAACACUGGAGCCGCUGGGAACUAAUUUGUAUGCGAAAGUAUAUUGAUUAGUUUUGGAGUACUCGUGGUCG
Outline: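 A randomised library covering all eight P1ex-region intron nucleotides was built with the intron in the knt kanamycin-resistance gene on pET-22b(+) and held in E. coli BL21(DE3). Cells were grown overnight at 37°C or 30°C on LB agar, with or without 25 μg/mL kanamycin, plus 100 μg/mL carbenicillin, 50 μM IPTG and 0.2% rhamnose, and pooled colonies were amplicon-sequenced on an Illumina HiSeq 2500. DiMSum fitness is the error-weighted combination of wild-type-normalised replicate fold changes, kanamycin versus none.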

Sequence: AUGUAGCAAUAUUACGAAAC
- self-splicing fitness (ln) (30 °C): -2.77 ± 0.24
- self-splicing fitness (ln) (37 °C): -1.76 ± 0.27

Sequence: AUGUAGCAAUAUUACGACAC
- self-splicing fitness (ln) (30 °C): -1.31 ± 0.14
- self-splicing fitness (ln) (37 °C): -0.0916 ± 0.2

Sequence: AUGUAGCAAUAUUACGAGAG
- self-splicing fitness (ln) (30 °C): -4.62 ± 0.39
- self-splicing fitness (ln) (37 °C): -2.71 ± 0.22

Sequence: AUGUAGCAAUAUUACGAGGG
- self-splicing fitness (ln) (30 °C): -3.49 ± 0.23
- self-splicing fitness (ln) (37 °C): -1.18 ± 0.22

Sequence: AUGUAGCAAUAUUACGAGGU
- self-splicing fitness (ln) (30 °C): -2.28 ± 0.19
- self-splicing fitness (ln) (37 °C): -1.84 ± 0.23

Sequence: AUGUAGCAAUAUUACGAGUA
- self-splicing fitness (ln) (30 °C): -2.73 ± 0.17
- self-splicing fitness (ln) (37 °C): -1.72 ± 0.13

Sequence: AUGUAGCAAUAUUACGAUUU
- self-splicing fitness (ln) (30 °C): -0.199 ± 0.093
- self-splicing fitness (ln) (37 °C): 0.373 ± 0.11

Sequence: AUGUAGCAAUAUUACGCGCG
- self-splicing fitness (ln) (30 °C): -0.882 ± 0.093
- self-splicing fitness (ln) (37 °C): -0.464 ± 0.099

Sequence: AUGUAGCAAUAUUACGCGUG
- self-splicing fitness (ln) (30 °C): -1.44 ± 0.12
- self-splicing fitness (ln) (37 °C): -0.836 ± 0.12

Sequence: AUGUAGCAAUAUUACGCUUA
- self-splicing fitness (ln) (30 °C): -0.903 ± 0.14
- self-splicing fitness (ln) (37 °C): -0.145 ± 0.16

Sequence: AUGUAGCAAUAUUACGGACC
- self-splicing fitness (ln) (30 °C): -1.05 ± 0.2
- self-splicing fitness (ln) (37 °C): -0.411 ± 0.21

Sequence: AUGUAGCAAUAUUACGGAUC
- self-splicing fitness (ln) (30 °C): -1.92 ± 0.2
- self-splicing fitness (ln) (37 °C): -1.61 ± 0.23

Sequence: AUGUAGCAAUAUUACGGCAU
- self-splicing fitness (ln) (30 °C): -1.88 ± 0.12
- self-splicing fitness (ln) (37 °C): -1.69 ± 0.16

Sequence: AUGUAGCAAUAUUACGGGAG
- self-splicing fitness (ln) (30 °C): -3.16 ± 0.29
- self-splicing fitness (ln) (37 °C): -2.64 ± 0.44

Sequence: AUGUAGCAAUAUUACGGGUU
- self-splicing fitness (ln) (30 °C): -2.26 ± 0.1
- self-splicing fitness (ln) (37 °C): -2.23 ± 0.19

Sequence: AUGUAGCAAUAUUACGGUUG
- self-splicing fitness (ln) (30 °C): -3.62 ± 0.2
- self-splicing fitness (ln) (37 °C): -1.99 ± 0.19

Sequence: AUGUAGCAAUAUUACGUAUC
- self-splicing fitness (ln) (30 °C): -4.2 ± 0.42
- self-splicing fitness (ln) (37 °C): -2.58 ± 0.3

Sequence: AUGUAGCAAUAUUACGUCCA
- self-splicing fitness (ln) (30 °C): -1.65 ± 0.17
- self-splicing fitness (ln) (37 °C): -0.252 ± 0.17

Sequence: AUGUAGCAAUAUUACGUCCU
- self-splicing fitness (ln) (30 °C): -0.674 ± 0.13
- self-splicing fitness (ln) (37 °C): 0.252 ± 0.19

Sequence: AUGUAGCAAUAUUACGUGAU
- self-splicing fitness (ln) (30 °C): -1.52 ± 0.082
- self-splicing fitness (ln) (37 °C): -0.75 ± 0.11

Sequence: AUGUAGCAAUAUUACGUUAG
- self-splicing fitness (ln) (30 °C): -1.89 ± 0.22
- self-splicing fitness (ln) (37 °C): -2.97 ± 0.4

Sequence: AUUAAGCAAUAUUACGAAAU
- self-splicing fitness (ln) (30 °C): -1.35 ± 0.13
- self-splicing fitness (ln) (37 °C): -1.44 ± 0.18

Sequence: AUUAAGCAAUAUUACGACCA
- self-splicing fitness (ln) (30 °C): -0.395 ± 0.2
- self-splicing fitness (ln) (37 °C): -0.571 ± 0.25

Sequence: AUUAAGCAAUAUUACGAUAG
- self-splicing fitness (ln) (30 °C): -3.89 ± 0.37
- self-splicing fitness (ln) (37 °C): -2.55 ± 0.31

Sequence: AUUAAGCAAUAUUACGAUUA
- self-splicing fitness (ln) (30 °C): -0.777 ± 0.13
- self-splicing fitness (ln) (37 °C): -0.308 ± 0.13

Sequence: AUUAAGCAAUAUUACGCAUC
- self-splicing fitness (ln) (30 °C): -3.36 ± 0.31
- self-splicing fitness (ln) (37 °C): -1.24 ± 0.25

Sequence: AUUAAGCAAUAUUACGCCUG
- self-splicing fitness (ln) (30 °C): -0.765 ± 0.15
- self-splicing fitness (ln) (37 °C): -0.543 ± 0.17

Sequence: AUUAAGCAAUAUUACGGCCU
- self-splicing fitness (ln) (30 °C): -0.548 ± 0.1
- self-splicing fitness (ln) (37 °C): -0.318 ± 0.12

Sequence: AUUAAGCAAUAUUACGGCGA
- self-splicing fitness (ln) (30 °C): -0.67 ± 0.12
- self-splicing fitness (ln) (37 °C): -0.121 ± 0.14

Sequence: AUUAAGCAAUAUUACGGCUU
- self-splicing fitness (ln) (30 °C): -0.718 ± 0.088
- self-splicing fitness (ln) (37 °C): 0.207 ± 0.12

Sequence: AUUAAGCAAUAUUACGGGUU
- self-splicing fitness (ln) (30 °C): -2.34 ± 0.23
- self-splicing fitness (ln) (37 °C): -2.92 ± 0.38

Sequence: AUUAAGCAAUAUUACGGUAA
- self-splicing fitness (ln) (30 °C): -1.64 ± 0.12
- self-splicing fitness (ln) (37 °C): -1.33 ± 0.11

Sequence: AUUAAGCAAUAUUACGGUAU
- self-splicing fitness (ln) (30 °C): -1.01 ± 0.11
- self-splicing fitness (ln) (37 °C): -1.2 ± 0.14

Sequence: AUUAAGCAAUAUUACGUACG
- self-splicing fitness (ln) (30 °C): -1.15 ± 0.13
- self-splicing fitness (ln) (37 °C): -0.777 ± 0.14

Sequence: AUUAAGCAAUAUUACGUAGG
- self-splicing fitness (ln) (30 °C): -2.34 ± 0.18
- self-splicing fitness (ln) (37 °C): -1.81 ± 0.29

Sequence: AUUAAGCAAUAUUACGUCCU
- self-splicing fitness (ln) (30 °C): -0.24 ± 0.097
- self-splicing fitness (ln) (37 °C): 0.264 ± 0.12

Sequence: AUUAAGCAAUAUUACGUCGC
- self-splicing fitness (ln) (30 °C): -3.33 ± 0.22
- self-splicing fitness (ln) (37 °C): -2.8 ± 0.25
